Assay in all cases: ELISA
Assay [1] concerns the target T1, GST-tagged Nup153 (895–1475) ( (mammalian), UniProt P49790 895-1475).
T1 sequence (looked up): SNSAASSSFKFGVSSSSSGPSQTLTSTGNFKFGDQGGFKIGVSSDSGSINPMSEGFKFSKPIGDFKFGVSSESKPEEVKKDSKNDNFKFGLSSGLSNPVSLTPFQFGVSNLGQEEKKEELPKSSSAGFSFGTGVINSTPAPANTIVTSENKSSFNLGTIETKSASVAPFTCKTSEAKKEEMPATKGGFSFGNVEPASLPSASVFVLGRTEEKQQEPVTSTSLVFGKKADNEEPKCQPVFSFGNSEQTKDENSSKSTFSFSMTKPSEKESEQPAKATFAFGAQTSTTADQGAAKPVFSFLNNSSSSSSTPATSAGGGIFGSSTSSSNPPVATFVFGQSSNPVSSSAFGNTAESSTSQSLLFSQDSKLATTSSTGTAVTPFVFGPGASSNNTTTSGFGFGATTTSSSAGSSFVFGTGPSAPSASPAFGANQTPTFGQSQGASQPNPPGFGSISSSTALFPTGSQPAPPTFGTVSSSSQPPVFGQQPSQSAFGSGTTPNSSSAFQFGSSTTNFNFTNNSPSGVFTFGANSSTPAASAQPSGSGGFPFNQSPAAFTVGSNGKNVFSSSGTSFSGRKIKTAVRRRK

For assay [2], the target named is wild-type importin β (human, UniProt Q14974 1-876).
The target of assay [3] is importin β I178A (human, UniProt Q14974 1-876, I178A).
Assay [4] has as its target importin β E214A (human, UniProt Q14974 1-876, E214A).
For assay [5], the target named is importin β F217A (human, UniProt Q14974 1-876, F217A).
The target of assay [6] is GST–RanGTP (UniProt P62826 1-216).

B1: importin β (304–876) (domain or fragment, human, UniProt Q14974 304-876, looked up)
chain: GRPPEHTSKFYAKGALQYLVPILTQTLTKQDENDDDDDWNPCKAAGVCLMLLATCCEDDIVPHVLPFIKEHIKNPDWRYRDAAVMAFGCILEGPEPSQLKPLVIQAMPTLIELMKDPSVVVRDTAAWTVGRICELLPEAAINDVYLAPLLQCLIEGLSAEPRVASNVCWAFSSLAEAAYEAADVADDQEEPATYCLSSSFELIVQKLLETTDRPDGHQNNLRSSAYESLMEIVKNSAKDCYPAVQKTTLVIMERLQQVLQMESHIQSTSDRIQFNDLQSLLCATLQNVLRKVQHQDALQISDVVMASLLRMFQSTAGSGGVQEDALMAVSTLVEVLGGEFLKYMEAFKPFLGIGLKNYAEYQVCLAAVGLVGDLCRALQSNIIPFCDEVMQLLLENLGNENVHRSVKPQILSVFGDIALAIGGEFKKYLEVVLNTLQQASQAQVDKSDYDMVDYLNELRESCLEAYTGIVQGLKGDQENVHPDVMLVQPRVEFILSFIDHIAGDEDHTDGVVACAAGLIGDLCTAFGKDVLKLVEARPMIHELLTEGRRSKTNKAKTLATWATKELRKLKNQA
Regarding B1, the Kd in assay [1] is 152 ± 17.5 nM.

B2: importin β (1–396) (domain or fragment, human, UniProt Q14974 1-396, looked up)
chain: MELITILEKTVSPDRLELEAAQKFLERAAVENLPTFLVELSRVLANPGNSQVARVAAGLQIKNSLTSKDPDIKAQYQQRWLAIDANARREVKNYVLQTLGTETYRPSSASQCVAGIACAEIPVNQWPELIPQLVANVTNPNSTEHMKESTLEAIGYICQDIDPEQLQDKSNEILTAIIQGMRKEEPSNNVKLAATNALLNSLEFTKANFDKESERHFIMQVVCEATQCPDTRVRVAALQNLVKIMSLYYQYMETYMGPALFAITIEAMKSDIDEVALQGIEFWSNVCDEEMDLAIEASEAAEQGRPPEHTSKFYAKGALQYLVPILTQTLTKQDENDDDDDWNPCKAAGVCLMLLATCCEDDIVPHVLPFIKEHIKNPDWRYRDAAVMAFGCILEG
B2 yielded a Kd in assay [1] of 1.2 ± 0.1 nM.

B3: importin β m-N (1–396) (domain or fragment, human, UniProt Q14974 1-396, looked up)
chain: MELITILEKTVSPDRLELEAAQKFLERAAVENLPTFLVELSRVLANPGNSQVARVAAGLQIKNSLTSKDPDIKAQYQQRWLAIDANARREVKNYVLQTLGTETYRPSSASQCVAGIACAEIPVNQWPELIPQLVANVTNPNSTEHMKESTLEAIGYICQDIDPEQLQDKSNEILTAIAQGMRKEEPSNNVKLAATNALLNSLEFTKANFDKESERHAIMQVVCEATQCPDTRVRVAALQNLVKIMSLYYQYMETAMGPALFARTIEAMKSDIDEVALQGIEFWSNVCDEEMDLAIEASEAAEQGRPPEHTSKFYAKGALQYLVPILTQTLTKQDENDDDDDWNPCKAAGVCLMLLATCCEDDIVPHVLPFIKEHIKNPDWRYRDAAVMAFGCILEG
B3 had a Kd in assay [1] of 160 ± 25.3 nM.

B4: GST-tagged full-length Nup62 (natural protein, UniProt P17955 1-525, looked up)
chain: MSGFNFGGTGAPAGGFTFGTAKTATTTPATGFSFSASGTGTGGFNFGTPSQPAATTPSTSLFSLATQTSTTQTPGFNFGTTPASGGTGFSLGISTPKLSLSSTAATPATANTGSFGLGSSTLTNAISGASTSSQGTAPTGFVFGSSTTSAPSTGTTGFSFTSGSASQPGASGFNIGSVGSLAQPTALSGSPFTPATLATTTAGATQPAAATPTAATTSAGSTLFASIAAAPASSSTTVLSLSAPATTAATPTAGTLGFSLKAPGAAPGASTTSTTTTTTTTTTTASTSSSTTTTGFALSLKPLVPAGPSSVAATALPASSTAVGTTTGPAMTYAQLESLINKWSLELEDQERHFLQQATQVNAWDRTLIENGEKITSLHREVEKVKLDQKRLDQELDFILSQQKELEDLLSPLEESVKEQSGTIYLQHADEEREKTYKLAENIDAQLKRMAQDLKDIIEHLNMAGGPADTSDPLQQICKILNAHMDSLQWVDQSSALLQRRVEEASRVCESRRKEQERSLRIAFD
For the molecule B4, the Kd came to 77.3 ± 11.6 nM in assay [2], 89 ± 9 nM in assay [3], 770 ± 123 nM in assay [4] and 227 ± 33.3 nM in assay [5].

B5: importin β I178A/F217A/Y255A/I263R (m-N) (natural protein)
chain: MELITILEKTVSPDRLELEAAQKFLERAAVENLPTFLVELSRVLANPGNSQVARVAAGLQIKNSLTSKDPDIKAQYQQRWLAIDANARREVKNYVLQTLGTETYRPSSASQCVAGIACAEIPVNQWPELIPQLVANVTNPNSTEHMKESTLEAIGYICQDIDPEQLQDKSNEILTAIAQGMRKEEPSNNVKLAATNALLNSLEFTKANFDKESERHAIMQVVCEATQCPDTRVRVAALQNLVKIMSLYYQYMETAMGPALFARTIEAMKSDIDEVALQGIEFWSNVCDEEMDLAIEASEAAEQGRPPEHTSKFYAKGALQYLVPILTQTLTKQDENDDDDDWNPCKAAGVCLMLLATCCEDDIVPHVLPFIKEHIKNPDWRYRDAAVMAFGCILEGPEPSQLKPLVIQAMPTLIELMKDPSVVVRDTAAWTVGRICELLPEAAINDVYLAPLLQCLIEGLSAEPRVASNVCWAFSSLAEAAYEAADVADDQEEPATYCLSSSFELIVQKLLETTDRPDGHQNNLRSSAYESLMEIVKNSAKDCYPAVQKTTLVIMERLQQVLQMESHIQSTSDRIQFNDLQSLLCATLQNVLRKVQHQDALQISDVVMASLLRMFQSTAGSGGVQEDALMAVSTLVEVLGGEFLKYMEAFKPFLGIGLKNYAEYQVCLAAVGLVGDLCRALQSNIIPFCDEVMQLLLENLGNENVHRSVKPQILSVFGDIALAIGGEFKKYLEVVLNTLQQASQAQVDKSDYDMVDYLNELRESCLEAYTGIVQGLKGDQENVHPDVMLVQPRVEFILSFIDHIAGDEDHTDGVVACAAGLIGDLCTAFGKDVLKLVEARPMIHELLTEGRRSKTNKAKTLATWATKELRKLKNQA
As for B5, in assay [6], the Kd was determined as 3.9 ± 0.4 nM.

Source of the values: PMC2172684 (The Journal of Cell Biology, 2003).
